Key:
Assay in all cases: malachite green phosphate release after HCl stop, Michaelis-Menten fit
Format in all cases: biochemical, Santalum album
Details in all cases: 10 mM Mg2+, 25 mM HEPES, 30°C, 10 min
[1] = substrate: CC(C)=CCC/C(C)=C/CC/C(C)=C/CO[P@@](=O)(O)OP(=O)(O)O
Source text: (§1) malachite green phosphate release after HCl stop, Michaelis-Menten fit on SaTPS2

[2] = substrate: CC(C)=CCC/C(C)=C/COP(=O)(O)OP(=O)(O)O
Source text: as §1

[3] = substrate: CC(C)=CCC/C(C)=C/CC/C(C)=C/CO[P@@](=O)(O)OP(=O)(O)O; remark: listed apart in the source
Source text: (§2) malachite green phosphate release after HCl stop, Michaelis-Menten fit on SaTPS3

[4] = substrate: CC(C)=CCC/C(C)=C/COP(=O)(O)OP(=O)(O)O; remark: listed apart in the source
Source text: as §2

B1: SaTPS2 (Santalum album) (protein)
chain: MDSATLKVLCDNDANVKIEKNPSGNRRSANYEPSIWNYDFLQSLDSCYNIVEEKHLKLAEKLKGEVKSIIKAPMEPLAKLELVDVVQRLGLKHLFETEIKEALFTVYKDGSDAWWLGHLYATSLRFRLLRQAGLFIPQDVFEIFKSATGEFDMKLRDNIEGLLSLYEASFLGWKGENILDEAKAFTTEYLKNAWENIPQKWLAIRVKHALDLPLHWRVPRFEARWFIDAYEREENINPTLLKLAKLDFNMVQSIHQRELGKLARWWVSTGLDKLSFARNNLMQSYMYGTAVTSDPQFKLARETIVKTGSLITIVDDVYDVFGSIDELELYTNFVDRWNCTEVDELPNTIKMIFLAMFNTANEIGFQIQTERGFNGIPALSKAWDDLCKSYIKEAKWYHGKHKPTLQEYLGNAVVSVGFPLLMTTGYVAIADSEGALDKIDRIPDLVRYACLLNRLVNDLATSSDELARGDTLKSIECYMNQTGASEEIAREHIKGLIEDTWKTLNECSFDDSQFGEPFVSFNLNSVRGSHFFYQHGDGYGVTNSWTKDDLMSILINPISVDDES
notes: full-length ORF, 6His-tagged, pET-28a, E. coli Rosetta 2 (DE3), Ni-NTA purified; no plastid transit peptide; SaTPS1 to 3 span 564 to 604 residues
Km [1]: 12.15 ± 1.32 µM
kcat [1]: 0.2 ± 0.008 s⁻¹
kcat/Km [1]: 16400 M⁻¹ s⁻¹
Km [2]: 12.27 ± 1.32 µM
kcat [2]: 0.189 ± 0.007 s⁻¹
kcat/Km [2]: 15400 M⁻¹ s⁻¹

B2: SaTPS3 (Santalum album) (protein)
chain: MESFVFLKSATSNANNSVKVDNRRSANYQSSVWDYNFLRLLGTTYTCCDTMEEEHVRIAEKLKEEVKSLIMGSMGPLANLEFIDAVQRLGLKYQFETEIKEALFAIYKDSNEEWWANDLHATALRFRLLRRNLLFVSQDVFERFKDKKTHDFSGELCEDVKGILSLYEACFLGWDGERVLDKARIFTTTHLNAMNRSTVSDGGSLDKKVKHALELPLHWRAPRVEARWFIDVYEQDPNMNLALLKLAKLDFNMVQSIHQKEVGELSRWWVRTGLDKLSFARNGLMQNYMYCCAVTFEPQFAHVREALTKIGSVLTATDDLYDVYGSLEELELFTSFIDRWDIKEIDELPRDIRLIFLAMYNLSNEIGFDILRDRDFNGVPYVAKMLGDVCSAYLKEARWYHGGYKPRMEEYLDNGLVSIGMLPLLAVAYMLTTDNLSKETVDHVAAAAPLVRYCSLLLRMIDDLGTSSDELRRGDTLKSVECYMNQAGASEEIAREHIEELVRNTWKKMNQCCFGDGQSSFADPFLSFTLNSVRGAHFFYQFGDGFGVTESWTKDTVLSVLFQPIPLDED
notes: as for B1
Km [3]: 16.29 ± 1.48 µM
kcat [3]: 0.171 ± 0.006 s⁻¹
kcat/Km [3]: 10500 M⁻¹ s⁻¹
Km [4]: 14.38 ± 1.20 µM
kcat [4]: 0.257 ± 0.008 s⁻¹
kcat/Km [4]: 17900 M⁻¹ s⁻¹

Reference: paper PMC6437863, “Identification and functional characterization of three new terpene synthase genes involved in chemical defense and abiotic stresses in Santalum album” (BMC Plant Biology, 2019)
